From paper PMC11577023

Experiments:
Assay in all cases: […] (pH 7.4), 0.5 mL/min; […]
[1] = target: rTET-NA derived from A/Michigan/45/2015 N1 (not stated | influenza A virus A/Michigan/45/2015 (H1N1))
[2] = target: rTET-NA derived from A/Singapore/INFIMH-16-0019/2016 N2 (not stated | influenza A virus A/Singapore/INFIMH-16-0019/2016 (H3N2))
[3] = target: rTET-NA derived from B/Colorado/06/2017 (B/Victoria/2/87-like lineage) (not stated | influenza B virus B/Colorado/06/2017 (B/Victoria/2/87-like lineage))
[4] = target: rTET-NA derived from B/Phuket/3073/2013 (B/Yamagata/16/88-like lineage) (not stated | influenza B virus B/Phuket/3073/2013 (B/Yamagata/16/88-like lineage))

## rTET-NA derived from A/Michigan/45/2015 N1 (enzyme)
[1]
  stoichiometry N: 4

## rTET-NA derived from A/Singapore/INFIMH-16-0019/2016 N2 (enzyme)
[2]
  stoichiometry N: 4

## rTET-NA derived from B/Colorado/06/2017 (B/Victoria/2/87-like lineage) (enzyme)
[3]
  stoichiometry N: 4

## rTET-NA derived from B/Phuket/3073/2013 (B/Yamagata/16/88-like lineage) (enzyme)
[4]
  stoichiometry N: 4
